Results taken from PMC12087662.

Target: ATP6V1D (UniProt Q9Y5K8)
Experiment: in vitro binding, anti-Flag pull-down
Conditions: reference: wild-type ATP6V1B2-Flag; sites Y68

binding against the reference: weaker
Substance: ATP6V1B2 (from UniProt P21281) ATP6V1B2(Y68F)-Flag
